Experimental data taken from publication PMC4027205, “TstI, a Type II restriction–modification protein with DNA recognition, cleavage and methylation functions in a single polypeptide”.
Values belong to the molecule of their own block, whether it stands above or below them.

Legend:
[1] = molecular target: T1, TstI restriction-modification protein (His-tagged) (Thermus scotoductus RFL1 (printed as T. scotoductus RFL1)) (UniProt A6H2J1); assay: cleavage kinetics: kobs vs enzyme concentration, hyperbolic fit (no direct binding read-out); details: EMSA conditions not given (data not shown); cleavage in buffer R (composition not in material), 37 C
T1 sequence: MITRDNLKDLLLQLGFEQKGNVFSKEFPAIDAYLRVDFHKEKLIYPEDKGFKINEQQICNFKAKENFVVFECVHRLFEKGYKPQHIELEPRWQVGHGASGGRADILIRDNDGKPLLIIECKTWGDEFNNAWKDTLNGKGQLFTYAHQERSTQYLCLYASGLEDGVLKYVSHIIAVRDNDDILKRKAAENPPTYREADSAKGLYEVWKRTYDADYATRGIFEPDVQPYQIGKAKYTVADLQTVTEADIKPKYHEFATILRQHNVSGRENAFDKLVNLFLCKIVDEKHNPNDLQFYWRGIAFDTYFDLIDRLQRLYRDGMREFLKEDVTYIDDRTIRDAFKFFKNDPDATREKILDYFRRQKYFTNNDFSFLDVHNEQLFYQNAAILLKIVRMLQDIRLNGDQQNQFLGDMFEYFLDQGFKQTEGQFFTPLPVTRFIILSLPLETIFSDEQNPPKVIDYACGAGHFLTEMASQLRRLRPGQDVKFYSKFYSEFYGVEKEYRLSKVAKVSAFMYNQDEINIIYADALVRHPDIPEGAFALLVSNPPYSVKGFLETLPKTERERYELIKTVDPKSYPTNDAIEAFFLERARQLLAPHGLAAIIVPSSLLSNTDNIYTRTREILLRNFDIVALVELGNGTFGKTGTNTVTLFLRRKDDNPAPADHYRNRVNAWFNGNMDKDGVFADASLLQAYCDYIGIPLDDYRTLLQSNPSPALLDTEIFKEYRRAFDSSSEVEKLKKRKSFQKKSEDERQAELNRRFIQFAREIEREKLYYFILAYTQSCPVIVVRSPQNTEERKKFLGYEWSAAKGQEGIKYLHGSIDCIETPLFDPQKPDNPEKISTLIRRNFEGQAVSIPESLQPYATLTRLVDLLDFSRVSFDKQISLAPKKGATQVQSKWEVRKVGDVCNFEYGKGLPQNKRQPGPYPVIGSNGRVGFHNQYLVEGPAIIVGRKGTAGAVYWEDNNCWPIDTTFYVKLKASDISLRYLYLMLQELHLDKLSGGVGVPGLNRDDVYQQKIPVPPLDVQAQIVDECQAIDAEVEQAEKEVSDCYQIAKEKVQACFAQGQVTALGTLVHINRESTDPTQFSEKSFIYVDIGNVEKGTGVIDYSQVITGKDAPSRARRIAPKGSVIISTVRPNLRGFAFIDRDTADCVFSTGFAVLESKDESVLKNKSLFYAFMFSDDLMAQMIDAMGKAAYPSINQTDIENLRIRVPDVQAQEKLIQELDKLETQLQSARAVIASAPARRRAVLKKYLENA

[2] = molecular target: TstI RM protein (His-tagged form) (Thermus scotoductus RFL1); assay: AUC; sedimentation equilibrium; TstI 0.1-0.3 mg/ml in 20 mM Tris-HCl pH 8.4, 100 mM KCl, 10 mM MgCl2, 20°C; 5000, 6000 and 7500 rpm; global fit to a single ideal species
[3] = molecular target: T2, TstI restriction-modification protein (His-tagged) (Thermus scotoductus RFL1 (printed as T. …, UniProt A6H2J1 1-1251)); assay: EMSA; data not shown; EMSA conditions not given (data not shown); cleavage in buffer R (composition not in material), 37 C; details: protein: recombinant; tags: N-terminal His tag (pET15b, 20 extra aa); chain copies: 4
T2 sequence: T1 sequence

Molecule: pTST1
K half [1]: 19 nM

stoichiometry N [2]: 4
Molecule: TstI RM protein (His-tagged form) (enzyme)

B1: 50NS (dsDNA)
DNA 1: CTGTCTGAGATACACTCGTCTCGAACAAACCATCCAGTCTCTGACTATGT
DNA 2: ACATAGTCAGAGACTGGATGGTTTGTTCGAGACGAGTGTATCTCAGACAG
binding result [3]: binds
